Data as given in US20240270846A1 (published 2024).
Where a chain is given by its changes, count along the chain named. Names may count otherwise. Each block holds one binder with its values, some of them ahead of it.

Molecular target: T1, CD3 epsilon homodimer protein (UniProt P07766 23-126)
T1 construct: Construct of the homodimer is not described; also called CD3 (CD3 epsilon)
Experiment: SPR Biacore T200, CD3e homodimer on chip, antibody analyte;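 note: CD3 epsilon homodimer amine-coupled on CM4 sensor chip, antibodies injected as analyte at 25 °C in HBS-EP+, ratio ≥0.8 taken as binding retained versus unaltered parent antibody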

T1 sequence (P07766 23-126): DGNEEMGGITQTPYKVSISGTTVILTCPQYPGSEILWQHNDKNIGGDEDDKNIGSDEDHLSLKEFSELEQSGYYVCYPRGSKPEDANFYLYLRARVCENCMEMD

ratio of amounts bound (altered form/GLS3000): 0.19
B1: GLS3000 G89R one-arm antibody (antibody, human IgG1, kappa, L234A L235A, N297A, name in Kabat numbering)
light: DIVMTQSPLSLPVTPGEPASISCRSSQSLVHSNRNTYLHWYQQKPGQAPRLLIYKVSNRFSGVPDRFSGSGSGTDFTLKISRVEAEDVGVYYCRQGTQVPYTFGQGTKLEIKRTVAAPSVFIFPPSDEQLKSGTASVVCLLNNFYPREAKVQWKVDNALQSGNSQESVTEQDSKDSTYSLSSTLTLSKADYEKHKVYACEVTHQGLSSPVTKSFNRGEC
heavy: QVQLVESGGGVVQPGRSLRLSCAASGFTFSNAWMHWVRQAPGKGLEWVAQIKAKSNNYATYYAESVKGRFTISRDDSKNSLYLQMNSLKTEDTAVYYCRYVHYGAYYGVDAWGQGTTVTVSSASTKGPSVFPLAPSSKSTSGGTAALGCLVKDYFPEPVTVSWNSGALTSGVHTFPAVLQSSGLYSLSSVVTVPSSSLGTQTYICNVNHKPSNTKVDKKVEPKSCDKTHTCPPCPAPEAAGGPSVFLFPPKPKDTLMISRTPEVTCVVVDVSHEDPEVKFNWYVDGVEVHNAKTKPREEQYASTYRVVSVLTVLHQDWLNGKEYKCKVSNKALPAPIEKTISKAKGQPREPQVYTLPPSRCELTKNQVSLSCAVKGFYPSDIAVEWESNGQPENNYKTTPPVLDSDGSFFLVSKLTVDKSRWQQGNVFSCSVMHEALHNHYTQKSLSLSPDYKDDDDK
chain: EPKSSDKTHTCPPCPAPELLGGPSVFLFPPKPKDTLMISRTPEVTCVVVDVSHEDPEVKFNWYVDGVEVHNAKTKPREEQYNSTYRVVSVLTVLHQDWLNGKEYKCKVSNKALPAPIEKTISKAKGQPREPQVCTLPPSRDELTKNQVSLWCLVKGFYPSDIAVEWESNGQPENNYKTTPPVLDSDGSFFLYSKLTVDKSRWQQGNVFSCSVMHEALHNRYTQKSLSLSP

ratio of amounts bound (altered form/GLS3000): 0.24
B2: GLS3000 H34W one-arm antibody (antibody, human IgG1, kappa, L234A L235A, N297A, name in Kabat numbering)
light: B1 light with H39W, R94G
heavy: B1 heavy
chain: B1 chain

ratio of amounts bound (altered form/GLS3000): 0.65
B3: GLS3000 H34I one-arm antibody (antibody, human IgG1, kappa, L234A L235A, N297A, name in Kabat numbering)
light: B1 light with H39I, R94G
heavy: B1 heavy
chain: B1 chain

ratio of amounts bound (altered form/GLS3000): 1.03
B4: GLS3000 G89T one-arm antibody (antibody, human IgG1, kappa, L234A L235A, N297A, name in Kabat numbering)
light: B1 light with R94T
heavy: B1 heavy
chain: B1 chain

ratio of amounts bound (altered form/GLS3000): 0.24
B5: GLS3000 K50E one-arm antibody (antibody, human IgG1, kappa, L234A L235A, N297A, name in Kabat numbering)
light: B1 light with K55E, R94G
heavy: B1 heavy
chain: B1 chain

ratio of amounts bound (altered form/GLS3000): 0.16
B6: GLS3000 G91D one-arm antibody (antibody, human IgG1, kappa, L234A L235A, N297A, name in Kabat numbering)
light: B1 light with R94G, G96D
heavy: B1 heavy
chain: B1 chain

ratio of amounts bound (altered form/GLS3000): 0.2
B7: GLS3000 H34R one-arm antibody (antibody, human IgG1, kappa, L234A L235A, N297A, name in Kabat numbering)
light: B1 light with H39R, R94G
heavy: B1 heavy
chain: B1 chain

ratio of amounts bound (altered form/GLS3000): 0.26
B8: GLS3000 G91S one-arm antibody (antibody, human IgG1, kappa, L234A L235A, N297A, name in Kabat numbering)
light: B1 light with R94G, G96S
heavy: B1 heavy
chain: B1 chain

ratio of amounts bound (altered form/GLS3000): 2.17
B9: GLS3000 H34K one-arm antibody (antibody, human IgG1, kappa, L234A L235A, N297A, name in Kabat numbering)
light: B1 light with H39K, R94G
heavy: B1 heavy
chain: B1 chain

ratio of amounts bound (altered form/GLS3000): 1.63
B10: GLS3000 G89V one-arm antibody (antibody, human IgG1, kappa, L234A L235A, N297A, name in Kabat numbering)
light: B1 light with R94V
heavy: B1 heavy
chain: B1 chain

ratio of amounts bound (altered form/GLS3000): 0.26
B11: GLS3000 G91T one-arm antibody (antibody, human IgG1, kappa, L234A L235A, N297A, name in Kabat numbering)
light: B1 light with R94G, G96T
heavy: B1 heavy
chain: B1 chain

ratio of amounts bound (altered form/GLS3000): 0.16
B12: GLS3000 K50G one-arm antibody (antibody, human IgG1, kappa, L234A L235A, N297A, name in Kabat numbering)
light: B1 light with K55G, R94G
heavy: B1 heavy
chain: B1 chain

ratio of amounts bound (altered form/GLS3000): 0.27
B13: GLS3000 G91A one-arm antibody (antibody, human IgG1, kappa, L234A L235A, N297A, name in Kabat numbering)
light: B1 light with R94G, G96A
heavy: B1 heavy
chain: B1 chain

ratio of amounts bound (altered form/GLS3000): 0.25
B14: GLS3000 H34Q one-arm antibody (antibody, human IgG1, kappa, L234A L235A, N297A, name in Kabat numbering)
light: B1 light with H39Q, R94G
heavy: B1 heavy
chain: B1 chain

ratio of amounts bound (altered form/GLS3000): 0.18
B15: GLS3000 K50Q one-arm antibody (antibody, human IgG1, kappa, L234A L235A, N297A, name in Kabat numbering)
light: B1 light with K55Q, R94G
heavy: B1 heavy
chain: B1 chain

ratio of amounts bound (altered form/GLS3000): 1.02
B16: GLS3000 H34G one-arm antibody (antibody, human IgG1, kappa, L234A L235A, N297A, name in Kabat numbering)
light: B1 light with H39G, R94G
heavy: B1 heavy
chain: B1 chain

ratio of amounts bound (altered form/GLS3000): 0.5
B17: GLS3000 G89W one-arm antibody (antibody, human IgG1, kappa, L234A L235A, N297A, name in Kabat numbering)
light: B1 light with R94W
heavy: B1 heavy
chain: B1 chain

ratio of amounts bound (altered form/GLS3000): 0.5
B18: GLS3000 K50R one-arm antibody (antibody, human IgG1, kappa, L234A L235A, N297A, name in Kabat numbering)
light: B1 light with K55R, R94G
heavy: B1 heavy
chain: B1 chain

ratio of amounts bound (altered form/GLS3000): 0.23
B19: GLS3000 H34E one-arm antibody (antibody, human IgG1, kappa, L234A L235A, N297A, name in Kabat numbering)
light: B1 light with H39E, R94G
heavy: B1 heavy
chain: B1 chain

ratio of amounts bound (altered form/GLS3000): 0.89
B20: GLS3000 H34T one-arm antibody (antibody, human IgG1, kappa, L234A L235A, N297A, name in Kabat numbering)
light: B1 light with H39T, R94G
heavy: B1 heavy
chain: B1 chain

ratio of amounts bound (altered form/GLS3000): 0.35
B21: GLS3000 H34M one-arm antibody (antibody, human IgG1, kappa, L234A L235A, N297A, name in Kabat numbering)
light: B1 light with H39M, R94G
heavy: B1 heavy
chain: B1 chain

ratio of amounts bound (altered form/GLS3000): 0.16
B22: GLS3000 G91E one-arm antibody (antibody, human IgG1, kappa, L234A L235A, N297A, name in Kabat numbering)
light: B1 light with R94G, G96E
heavy: B1 heavy
chain: B1 chain

ratio of amounts bound (altered form/GLS3000): 0.59
B23: GLS3000 H34L one-arm antibody (antibody, human IgG1, kappa, L234A L235A, N297A, name in Kabat numbering)
light: B1 light with H39L, R94G
heavy: B1 heavy
chain: B1 chain

ratio of amounts bound (altered form/GLS3000): 0.27
B24: GLS3000 H34F one-arm antibody (antibody, human IgG1, kappa, L234A L235A, N297A, name in Kabat numbering)
light: B1 light with H39F, R94G
heavy: B1 heavy
chain: B1 chain

ratio of amounts bound (altered form/GLS3000): 0.34
B25: GLS3000 H34P one-arm antibody (antibody, human IgG1, kappa, L234A L235A, N297A, name in Kabat numbering)
light: B1 light with H39P, R94G
heavy: B1 heavy
chain: B1 chain

ratio of amounts bound (altered form/GLS3000): 0.78
B26: GLS3000 H34S one-arm antibody (antibody, human IgG1, kappa, L234A L235A, N297A, name in Kabat numbering)
light: B1 light with H39S, R94G
heavy: B1 heavy
chain: B1 chain

ratio of amounts bound (altered form/GLS3000): 0.59
B27: GLS3000 H34Y one-arm antibody (antibody, human IgG1, kappa, L234A L235A, N297A, name in Kabat numbering)
light: B1 light with H39Y, R94G
heavy: B1 heavy
chain: B1 chain

ratio of amounts bound (altered form/GLS3000): 0.27
B28: GLS3000 G91P one-arm antibody (antibody, human IgG1, kappa, L234A L235A, N297A, name in Kabat numbering)
light: B1 light with R94G, G96P
heavy: B1 heavy
chain: B1 chain

ratio of amounts bound (altered form/GLS3000): 0.3
B29: GLS3000 K50P one-arm antibody (antibody, human IgG1, kappa, L234A L235A, N297A, name in Kabat numbering)
light: B1 light with K55P, R94G
heavy: B1 heavy
chain: B1 chain

ratio of amounts bound (altered form/GLS3000): 0.65
B30: GLS3000 H34N one-arm antibody (antibody, human IgG1, kappa, L234A L235A, N297A, name in Kabat numbering)
light: B1 light with H39N, R94G
heavy: B1 heavy
chain: B1 chain

ratio of amounts bound (altered form/GLS3000): 0.85
B31: GLS3000 H34V one-arm antibody (antibody, human IgG1, kappa, L234A L235A, N297A, name in Kabat numbering)
light: B1 light with H39V, R94G
heavy: B1 heavy
chain: B1 chain

ratio of amounts bound (altered form/GLS3000): 0.23
B32: GLS3000 K50S one-arm antibody (antibody, human IgG1, kappa, L234A L235A, N297A, name in Kabat numbering)
light: B1 light with K55S, R94G
heavy: B1 heavy
chain: B1 chain

ratio of amounts bound (altered form/GLS3000): 0.24
B33: GLS3000 K50L one-arm antibody (antibody, human IgG1, kappa, L234A L235A, N297A, name in Kabat numbering)
light: B1 light with K55L, R94G
heavy: B1 heavy
chain: B1 chain
